The assay deals with GST-tagged PLD1-PX. The assay is described as follows: AFM force measurement; GST-Munc-18-1 on dendron-modified tip, GST-PLD1-PX on dendron-modified Si wafer.

The substance GST-tagged Munc-18-1 displayed a binding force of 50 pN.

For the origin of these results see patent US20070128623A1.
